From patent US20240052033A1 (Molecular Partners, published 2024) come the findings set out here.

Substitutions are numbered along the chain they refer to.

The target in test [1] is T1, human CD3 on primary human pan-T cells (human, UniProt P07766 23-207; P09693 23-182; P04234 22-171; P20963 22-164).
T1 construct: whole, on cells; Native CD3 complex (pairs εγ, εδ, ζζ) on T cells isolated from human PBMCs; it is associated with the T cell receptor on the cells; also called CD3 on Pan-T cells; CD3 on T cells
Description: Mirrorball laser scanning imaging cytometry on primary human pan-T cells with 600 µM HSA; detection with anti-penta-His Alexa Fluor 488; Median (FL-2 Mean Intensity) [B]. Here is the method:
The determination of CD3 binding was performed with primary human T cells using Mirrorball laser scanning imaging cytometry. Therefore, primary T cells were isolated from human peripheral blood mononuclear cells (PBMCs) using a pan-T cell purification kit (Miltenyi Biotec). […] To generate the tri-specific TCE proteins, DARPin® protein #1, DARPin® protein #2, DARPin® protein #3 and DARPin® protein #4, respectively, was subcloned and expressed as described above into a derivative of the pQE30 (Qiagen) expression vector, encoding an N-terminal His-tag, followed by two different TAA-specific ankyrin repeat domains (in the order TAA2- and TAA3-specific, respectively), and then followed by one of the CD3-specific ankyrin repeat domains of the invention. […] After washing, CD3 binding was detected by 1:100-diluted anti-penta-His Alexa Fluor 488 antibody (Qiagen). […] Median of mean fluorescence intensities of Alexa Fluor 488 binding on far-red counterstained cells were measured by Mirrorball using Cellista software (SPT Labtech) and data was plotted using GraphPad Prism 8.

The target in test [2] is T2, biotinylated human scCD3εγ (scCD3εγ_Avi-Bio): single-chain human CD3ε/CD3γ extracellular domains joined by a … (human, biotinylated in vitro with BirA at the C-terminal Avi-tag).
T2 construct: monomeric; also called recombinant human CD3 target; human CD3 (SPR)
T2 chain: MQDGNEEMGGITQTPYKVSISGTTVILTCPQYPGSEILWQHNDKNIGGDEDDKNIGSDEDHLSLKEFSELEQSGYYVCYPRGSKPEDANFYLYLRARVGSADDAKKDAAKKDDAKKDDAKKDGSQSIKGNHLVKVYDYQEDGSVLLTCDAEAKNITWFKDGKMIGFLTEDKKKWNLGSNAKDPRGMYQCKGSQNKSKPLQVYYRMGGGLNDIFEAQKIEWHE
Description: ribosome display selection; crude extract HTRF on recombinant human CD3 target. An excerpt:
Using ribosome display (Hanes, J. and Plückthun, A., PNAS 94, 4937-42, 1997), many ankyrin repeat proteins with binding specificity for human scCD3 were selected from DARPin® libraries similar as described by Binz et al. 2004 (loc. cit.). […] For example, the ankyrin repeat domain of SEQ ID NO: 1 constitutes an amino acid sequence of a selected binding protein comprising an ankyrin repeat domain with binding specificity for scCD3. Individual ankyrin repeat modules from such ankyrin repeat domains with binding specificity to scCD3 are provided, e.g., in SEQ ID NO: 5 to 9.

Test [3] deals with T1, human CD3 on primary human pan-T cells. Put plainly: Mirrorball laser scanning imaging cytometry on primary human pan-T cells, 600 µM HSA, anti-penta-His Alexa Fluor 488 detection.
Test [4] shares this target. Description: Mirrorball laser scanning imaging cytometry on primary human pan-T cells with 600 µM HSA; detection with anti-penta-His Alexa Fluor 488; Median (FL-2 Mean Intensity) [A].
The target of test [5] is biotinylated human scCD3εγ (scCD3εγ_Avi-Bio): single-chain human CD3ε/CD3γ extracellular domains joined by a 26 amino acid linker, with a C-terminal Avi-tag (human). Description: SPR (ProteOn), biotinylated scCD3εγ on NLC chip, DARPin as analyte 4-64 nM, PBS with 0.005% Tween 20; n = 6.
Test [6] shares this target. Description: SPR (ProteOn), biotinylated scCD3εγ on NLC chip, DARPin as analyte 4-64 nM, PBS with 0.005% Tween 20; n = 2.
For test [7] the target is unchanged. Description: SPR (ProteOn), biotinylated scCD3εγ on NLC chip, DARPin as analyte 4-64 nM, PBS with 0.005% Tween 20; n = 4.

T1 sequence (P07766 23-207, chain 1 of 4): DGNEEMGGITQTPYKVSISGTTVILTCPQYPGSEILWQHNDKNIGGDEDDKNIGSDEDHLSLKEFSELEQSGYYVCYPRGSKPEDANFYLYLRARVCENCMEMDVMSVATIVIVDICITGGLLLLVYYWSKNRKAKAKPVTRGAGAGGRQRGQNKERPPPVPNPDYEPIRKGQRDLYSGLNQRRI
T1 sequence (P09693 23-182, chain 2 of 4): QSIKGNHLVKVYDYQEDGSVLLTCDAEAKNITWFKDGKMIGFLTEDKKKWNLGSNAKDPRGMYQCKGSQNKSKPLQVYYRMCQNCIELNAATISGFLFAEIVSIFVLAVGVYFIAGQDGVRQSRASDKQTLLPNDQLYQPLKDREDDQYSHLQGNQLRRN
T1 sequence (P04234 22-171, chain 3 of 4): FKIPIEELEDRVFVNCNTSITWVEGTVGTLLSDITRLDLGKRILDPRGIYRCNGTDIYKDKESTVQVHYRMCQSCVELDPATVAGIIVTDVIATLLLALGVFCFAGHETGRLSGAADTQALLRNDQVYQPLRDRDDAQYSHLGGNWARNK
T1 sequence (P20963 22-164, chain 4 of 4): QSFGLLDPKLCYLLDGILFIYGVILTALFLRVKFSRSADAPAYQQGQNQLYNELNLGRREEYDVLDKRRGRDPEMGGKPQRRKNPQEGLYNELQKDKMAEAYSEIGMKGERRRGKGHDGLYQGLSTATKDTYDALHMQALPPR

B1: DARPin® protein A (with HSA) (designed binder)
single chain: DLGQKLLEAAWAGQDDEVRELLKAGADVNAKDSQGWTPLHTAAQTGHLEIFEVLLKAGADVNAKDDKGVTPLHLAAALGHLEIVEVLLKAGADVNAQDSWGTTPADLAAKYGHEDIAEVLQKAA
notes: The MOLECULES list holds the half-life extended forms of B, C and D only; also called DARPin® protein A with half-life extension
B1: in test [1], the binding result was “no binding (tested: about 3000 nM)”.

B2: SEQ ID NO 1 (designed binder)
chain: B1 single chain
notes: also called CD3-specific domain of DARPin® protein #1
In the case of B2, in test [2], the binding result is on record as “binds”.

B3: DARPin® protein D with half-life extension (tetraspecific format: His-tag, HSA-specific domain, TAA2-specific domain, TAA3-specific domain, DARPin® protein #4) (designed binder, not shown: large carriers; small tags and cut ends)
chain: B1 single chain with D15L, E20I, D32N, Q34R, D65T, D66N, G68R, Q97R, S99T, E114R
notes: also called half-life extended DARPin® protein D; DARPin® protein #H
Usually EC50 (read off the curve) stands for the concentration giving half of the maximal effect. High values mean a need for much substance, low ones an effect from little substance. For B3, in test [1], the “EC50 (read off the curve)” value was about 0.02 µM.

B4: DARPin® protein #4 with TAA2/TAA3 domains (trispecific format: His-tag, TAA2-specific domain, TAA3-specific domain, CD3-specific domain) (designed binder, part only; not given: CD123 and CD33 DARPin domains, not shown: small tags and cut ends)
chain, part: MRGSHHHHHHGSGSPTPTPTTPTPTPTTPTPTPTGSPTPTPTTPTPTPTTPTPTPTDLGQKLLEAAWAGQLDEVRILLKAGADVNAKNSRGWTPLHTAAQTGHLEIFEVLLKAGADVNAKTNKRVTPLHLAAALGHLEIVEVLLKAGADVNARDTWGTTPADLAAKYGHRDIAEVLQKAA
For orientation: EC50 means the midpoint of the concentration-response curve. Read a low EC50 as greater potency. Broadly, the Kd is the free concentration of one partner at which half of the binding sites on the other are occupied at equilibrium, for simple one-to-one binding. Low values mean higher affinity, high ones lower affinity. Broadly, the koff is the rate constant with which the complex falls apart. The term kon denotes a measure of how fast the partners come together. A higher kon goes with fast association. B4 came in with an EC50 in test [3] of 0.005 to 0.015 µM. The molecule also came in with a concentration for a half-maximal effect (EC50 (read off the curve)) in test [4] of 0.006 µM. In test [5], this molecule yielded a dissociation constant (Kd) of 0.006 µM, a koff of 0.00041 s⁻¹ and an on-rate (kon) of 82000 M⁻¹ s⁻¹.

B5: DARPin® protein #2 with TAA2/TAA3 domains (trispecific format: His-tag, TAA2-specific domain, TAA3-specific domain, CD3-specific domain) (designed binder, part only; not given: CD123 and CD33 DARPin domains, not shown: small tags and cut ends)
chain, part: B4 chain, part with L71D, I76E, T121D, N122D, R124G, R153Q, T155S, R170E
In test [3], B5 came in with an EC50 of 0.25 to 0.4 µM. In test [6], the Kd amounted to 0.035 µM, the off-rate constant (koff) is 0.0015 s⁻¹ and the kon is 49000 M⁻¹ s⁻¹.

B6: DARPin® protein #3 with TAA2/TAA3 domains (trispecific format: His-tag, TAA2-specific domain, TAA3-specific domain, CD3-specific domain) (designed binder, part only; not given: CD123 and CD33 DARPin domains, not shown: small tags and cut ends)
chain, part: B4 chain, part with L71D, I76E, T121N, N122D, T155S, R170Q
As to B6, the EC50 in test [3] was in the range of 0.05 to 0.1 µM. In test [7], this molecule came in with a Kd of 0.015 µM, a dissociation rate constant (koff) of 0.0013 s⁻¹ and an association rate constant (kon) of 89000 M⁻¹ s⁻¹.
